Tested on: E. necator
Assay: Leaf disc assay, dry inoculum (settling tower), decrease in disease severity / hyphal growth (Example 2)
Details: decrease in disease severity (hyphal growth) relative to untreated control, value ± SE; for % decrease =/− SE TP1: time point 1 (untreated control hyphal growth ≥50%); for % decrease =/− SE TP2: time point 2

Row | Molecule | % decrease =/− SE TP1 | % decrease =/− SE TP2
1 | GS3625 (nucleic acid) sense: GUUUGCCUUUCCAAAUAUCCAUCAUGCAGCUUUGUAACGUACCUCUCGUCCUGUUUGGUCUCCUCUGCUUUGGACUAGUUUCAACUGCUCCAGCACCAAACUCACCUUGGCAUCUACGAAGCCGACAGGAAGGUGGUGGCUACUAUGGCCAACCAUCGAAUGGUGAUGGAAGUGUGUAUCCACCUUCAUCUGGUACAGGUGGCUUUCUAUCGCCAACUGCUACGAGCGGUUAUCCGUCUGCAACUGGAACUGGCGGCUAUUCAUCUCCAUCGGGCACCGGUGGCUACCCGUCUGCAACAGGUACAGGUGGUUACGCAUCGCCAACAGGGACCAGUUACCCUACACCUACUGGAGGUUACUCUGAAGAGCCCUACCACUAUAAAGGUGUCAAGCUAGGUC antisense: GACCUAGCUUGACACCUUUAUAGUGGUAGGGCUCUUCAGAGUAACCUCCAGUAGGUGUAGGGUAACUGGUCCCUGUUGGCGAUGCGUAACCACCUGUACCUGUUGCAGACGGGUAGCCACCGGUGCCCGAUGGAGAUGAAUAGCCGCCAGUUCCAGUUGCAGACGGAUAACCGCUCGUAGCAGUUGGCGAUAGAAAGCCACCUGUACCAGAUGAAGGUGGAUACACACUUCCAUCACCAUUCGAUGGUUGGCCAUAGUAGCCACCACCUUCCUGUCGGCUUCGUAGAUGCCAAGGUGAGUUUGGUGCUGGAGCAGUUGAAACUAGUCCAAAGCAGAGGAGACCAAACAGGACGAGAGGUACGUUACAAAGCUGCAUGAUGGAUAUUUGGAAAGGCAAAC | 1 ± 2% | 0 ± 3%
2 | GS3628 (nucleic acid) sense: UAGUUUCAACUGCUCCAGCACCAAACUCACCUUGGCAUCUACGAAGCCGACAGGAAGGUGGUGGCUACUAUGGCCAACCAUCGAAUGGUGAUGGAAGUGUGUAUCCACCUUCAUCUGGUACAGGUGGCUUUCUAUCGCCAACUGCUACGAGCGGUUAUCCGUCUGCAACUGGAACUGGCGGCUAUUCAUCUCCAUCGGGCACCGGUGGCUACCCGUCUGCAACAGGUACAGGUGGUUACGCAUCGCCAA antisense: UUGGCGAUGCGUAACCACCUGUACCUGUUGCAGACGGGUAGCCACCGGUGCCCGAUGGAGAUGAAUAGCCGCCAGUUCCAGUUGCAGACGGAUAACCGCUCGUAGCAGUUGGCGAUAGAAAGCCACCUGUACCAGAUGAAGGUGGAUACACACUUCCAUCACCAUUCGAUGGUUGGCCAUAGUAGCCACCACCUUCCUGUCGGCUUCGUAGAUGCCAAGGUGAGUUUGGUGCUGGAGCAGUUGAAACUA | 12 ± 2% | 7 ± 5%
3 | GS3672 (nucleic acid) sense: UUCCUGGACAACCAGUAAAGAAAAAGUUGGGACCAAAUCAAACACAAGAAAUGAUAAAGUUUGCAUGUCGAACACCUGCCCAAAAUGCUACCUCAGUUGUUCAAGAUGGAAGACAUGUUUUGAGCCUGAACUCUAGCAACCCUGUUCUAUCUGAAUUUGGCCUUCAAGUAGGUCAGUCUUUGAUAUCAGUAAAUGCUCGAGUACUACAACCACCGUCUGUGAGAUAUGGAGGAUCUGGAAGUCUAUCACCGAGAAAUGGUAGUUGGAAUAUGAUUAACGUGAGAUUUCAUACACCCGCCAAAAUCGGACCAUGGACUUGUAUUAUGUUUCCCACCCAAGGAAGAAAUGACAUUGAUGUUGGUAAUAUGAGAUCACAUGUCACUGCUUUCCAAGCACA antisense: UGUGCUUGGAAAGCAGUGACAUGUGAUCUCAUAUUACCAACAUCAAUGUCAUUUCUUCCUUGGGUGGGAAACAUAAUACAAGUCCAUGGUCCGAUUUUGGCGGGUGUAUGAAAUCUCACGUUAAUCAUAUUCCAACUACCAUUUCUCGGUGAUAGACUUCCAGAUCCUCCAUAUCUCACAGACGGUGGUUGUAGUACUCGAGCAUUUACUGAUAUCAAAGACUGACCUACUUGAAGGCCAAAUUCAGAUAGAACAGGGUUGCUAGAGUUCAGGCUCAAAACAUGUCUUCCAUCUUGAACAACUGAGGUAGCAUUUUGGGCAGGUGUUCGACAUGCAAACUUUAUCAUUUCUUGUGUUUGAUUUGGUCCCAACUUUUUCUUUACUGGUUGUCCAGGAA | 34 ± 4% | 26 ± 7%
4 | GS3626 (nucleic acid) sense: GCAGCUUUGUAACGUACCUCUCGUCCUGUUUGGUCUCCUCUGCUUUGGACUAGUUUCAACUGCUCCAGCACCAAACUCACCUUGGCAUCUACGAAGCCGACAGGAAGGUGGUGGCUACUAUGGCCAACCAUCGAAUGGUGAUGGAAGUGUGUAUCCACCUUCAUCUGGUACAGGUGGCUUUCUAUCGCCAACUGCUACGAGCGGUUAUCCGUCUGCAACUGGAACUGGCGGCUAUUCAUCUCCAUCGGGCACCGGUGGCUACCCGUCUGCAACAGGUACAGGUGGUUACGCAUCGCCAACAGGGACCAGUUACCCUACACCUACUGGAGGUUACUCUGAAGAGCCCUAC antisense: GUAGGGCUCUUCAGAGUAACCUCCAGUAGGUGUAGGGUAACUGGUCCCUGUUGGCGAUGCGUAACCACCUGUACCUGUUGCAGACGGGUAGCCACCGGUGCCCGAUGGAGAUGAAUAGCCGCCAGUUCCAGUUGCAGACGGAUAACCGCUCGUAGCAGUUGGCGAUAGAAAGCCACCUGUACCAGAUGAAGGUGGAUACACACUUCCAUCACCAUUCGAUGGUUGGCCAUAGUAGCCACCACCUUCCUGUCGGCUUCGUAGAUGCCAAGGUGAGUUUGGUGCUGGAGCAGUUGAAACUAGUCCAAAGCAGAGGAGACCAAACAGGACGAGAGGUACGUUACAAAGCUGC | 3 ± 7% | 26 ± 7%
5 | GS3916 (nucleic acid) sense: UUACAAUCCAUGCACCAUCCAUUAAGCGAAAAUAAACCAUCACUGUUGAGAAAGAAGUUAAACGUGAUUUGAGCUGUUAUAAGAGUUGAGUUUAACACAGUAUUUUGAAUUUGUUCUAAUCCUGUACUUGCUAUUUUUGAAUCUUCGAGUGAUGGUGCAAGAUCAACGUUGAAGUGUAUGAUAGAAUCUGGUGCAGUUUCGGUACUUAAGUACAGAUAUGUUGCAAUGCCAAAACUAUCACUAGCACCACGCAUAGCAAAGAAAAUAUCGGGAUUUGUAUCAUCACUGGCGAAAAUUUCCUGUCCAUCAGCAAGAAUAACAUCCAUACCAACGAUGUGAUCA antisense: UGAUCACAUCGUUGGUAUGGAUGUUAUUCUUGCUGAUGGACAGGAAAUUUUCGCCAGUGAUGAUACAAAUCCCGAUAUUUUCUUUGCUAUGCGUGGUGCUAGUGAUAGUUUUGGCAUUGCAACAUAUCUGUACUUAAGUACCGAAACUGCACCAGAUUCUAUCAUACACUUCAACGUUGAUCUUGCACCAUCACUCGAAGAUUCAAAAAUAGCAAGUACAGGAUUAGAACAAAUUCAAAAUACUGUGUUAAACUCAACUCUUAUAACAGCUCAAAUCACGUUUAACUUCUUUCUCAACAGUGAUGGUUUAUUUUCGCUUAAUGGAUGGUGCAUGGAUUGUAA | 11 ± 9% | –
6 | GS3673 (nucleic acid) sense: AACUACUAACCUCGCCGCCCUAUAUAAGAAGAUGGGAACGCAAAAUCGUGUCAAUUUGAAAGAAAAGUUAAAAGGAAUGCGAAUCCAAAUCACACAUCUGCCCCCAAAGAUUAAUAAAACAACCGGAAAGGUUAUACCAAGGAUUAAAACCAUUCAAGGCCUUGCAAAUAUUAAUGAUGGUGCCAAAGAGGAGCAUCGACCAGAGGUUGCUGGAUAUGGUGCUGGUCCUCAAAAGGUCAAGUUUUGGGUAUCUGAAGAUACUGGCACUUCUAAAACCAGCCAAAAAAACCCCUUGCCAUCUAACACUUACAUCAGUGUAUAUGAUUACUUCAAAAAAAGAUACCCAAAGAUUGAAUUGGAUCCAAUAAAUCCUGUAGUUAAUGUUGGAAACAGUGAA antisense: UUCACUGUUUCCAACAUUAACUACAGGAUUUAUUGGAUCCAAUUCAAUCUUUGGGUAUCUUUUUUUGAAGUAAUCAUAUACACUGAUGUAAGUGUUAGAUGGCAAGGGGUUUUUUUGGCUGGUUUUAGAAGUGCCAGUAUCUUCAGAUACCCAAAACUUGACCUUUUGAGGACCAGCACCAUAUCCAGCAACCUCUGGUCGAUGCUCCUCUUUGGCACCAUCAUUAAUAUUUGCAAGGCCUUGAAUGGUUUUAAUCCUUGGUAUAACCUUUCCGGUUGUUUUAUUAAUCUUUGGGGGCAGAUGUGUGAUUUGGAUUCGCAUUCCUUUUAACUUUUCUUUCAAAUUGACACGAUUUUGCGUUCCCAUCUUCUUAUAUAGGGCGGCGAGGUUAGUAGUU | 34 ± 4% | 29 ± 6%
7 | GS1814: dsRNA trigger SEQ ID NO 161; gene target Importin subunit beta-3 (nucleic acid) DNA: TTATTGGTGGTAGAATGTTCAAAACCTCTGATATAAGTTCATAGTATTTTTGCTTGGATTTTTTGTTGAGACTCCTGAAGAATGAAGCGAAAGCTTCCATAGCGGCCAGTCGGACTGTCACGTCATCATCCTTAAATCCCTTGGTAAAAGCAGAAAGAACAGTATCTTCATGCTGCTTTTCGATTATTCTAGGAGTTGTTGAGAAGATTCTATAGGCAATCTCACGTTGGCCCATCACTTGCGACATACTGAGTGTAAAGAGAACACCTAGAATTTCGGGCCATTGCAACTTATCATCGGAGTACTGCCTAGCGACTTCTGCGACTGCATCACCTATCTTATTTCTTGTAGACGTTTCGGTTTCAGAGCTAAGGGCTTCAAGAAGTTTTTGTCTGATAATATGTCCTTGTTCTGTCGGCAAAGAGATAAATGTTTCCACTGACTGATTATTTTGTAATTTTCGAGTCTTTGAAGCTATCCGTCTGAAGATGACTGCAGCAAAAGAGCGTTTCGCAGGATCGTTTGAGCCCTGAATTTGTTCCACCAGGCCAATCAAGAGCATCTCTGGTTTAAGCAACGTCCAATTATTCGTTAAAT | 8 ± 4% | –
8 | GS3627 (nucleic acid) sense: CUGUUUGGUCUCCUCUGCUUUGGACUAGUUUCAACUGCUCCAGCACCAAACUCACCUUGGCAUCUACGAAGCCGACAGGAAGGUGGUGGCUACUAUGGCCAACCAUCGAAUGGUGAUGGAAGUGUGUAUCCACCUUCAUCUGGUACAGGUGGCUUUCUAUCGCCAACUGCUACGAGCGGUUAUCCGUCUGCAACUGGAACUGGCGGCUAUUCAUCUCCAUCGGGCACCGGUGGCUACCCGUCUGCAACAGGUACAGGUGGUUACGCAUCGCCAACAGGGACCAGUUACCCUACACCUAC antisense: GUAGGUGUAGGGUAACUGGUCCCUGUUGGCGAUGCGUAACCACCUGUACCUGUUGCAGACGGGUAGCCACCGGUGCCCGAUGGAGAUGAAUAGCCGCCAGUUCCAGUUGCAGACGGAUAACCGCUCGUAGCAGUUGGCGAUAGAAAGCCACCUGUACCAGAUGAAGGUGGAUACACACUUCCAUCACCAUUCGAUGGUUGGCCAUAGUAGCCACCACCUUCCUGUCGGCUUCGUAGAUGCCAAGGUGAGUUUGGUGCUGGAGCAGUUGAAACUAGUCCAAAGCAGAGGAGACCAAACAG | 30 ± 3% | 29 ± 6%
